Assay results taken from doi:10.1101/2021.09.06.459192 (bioRxiv, 2021).
Blank lines part the entries; values can stand above or below the binder they belong to.

Target: Rrp5 full length, recombinant (Rrp5_FL) (S. cerevisiae, UniProt Q05022 1-1729)
Test: pull-down

Chain of Rrp5 full length, recombinant (Rrp5_FL) (Q05022 whole entry): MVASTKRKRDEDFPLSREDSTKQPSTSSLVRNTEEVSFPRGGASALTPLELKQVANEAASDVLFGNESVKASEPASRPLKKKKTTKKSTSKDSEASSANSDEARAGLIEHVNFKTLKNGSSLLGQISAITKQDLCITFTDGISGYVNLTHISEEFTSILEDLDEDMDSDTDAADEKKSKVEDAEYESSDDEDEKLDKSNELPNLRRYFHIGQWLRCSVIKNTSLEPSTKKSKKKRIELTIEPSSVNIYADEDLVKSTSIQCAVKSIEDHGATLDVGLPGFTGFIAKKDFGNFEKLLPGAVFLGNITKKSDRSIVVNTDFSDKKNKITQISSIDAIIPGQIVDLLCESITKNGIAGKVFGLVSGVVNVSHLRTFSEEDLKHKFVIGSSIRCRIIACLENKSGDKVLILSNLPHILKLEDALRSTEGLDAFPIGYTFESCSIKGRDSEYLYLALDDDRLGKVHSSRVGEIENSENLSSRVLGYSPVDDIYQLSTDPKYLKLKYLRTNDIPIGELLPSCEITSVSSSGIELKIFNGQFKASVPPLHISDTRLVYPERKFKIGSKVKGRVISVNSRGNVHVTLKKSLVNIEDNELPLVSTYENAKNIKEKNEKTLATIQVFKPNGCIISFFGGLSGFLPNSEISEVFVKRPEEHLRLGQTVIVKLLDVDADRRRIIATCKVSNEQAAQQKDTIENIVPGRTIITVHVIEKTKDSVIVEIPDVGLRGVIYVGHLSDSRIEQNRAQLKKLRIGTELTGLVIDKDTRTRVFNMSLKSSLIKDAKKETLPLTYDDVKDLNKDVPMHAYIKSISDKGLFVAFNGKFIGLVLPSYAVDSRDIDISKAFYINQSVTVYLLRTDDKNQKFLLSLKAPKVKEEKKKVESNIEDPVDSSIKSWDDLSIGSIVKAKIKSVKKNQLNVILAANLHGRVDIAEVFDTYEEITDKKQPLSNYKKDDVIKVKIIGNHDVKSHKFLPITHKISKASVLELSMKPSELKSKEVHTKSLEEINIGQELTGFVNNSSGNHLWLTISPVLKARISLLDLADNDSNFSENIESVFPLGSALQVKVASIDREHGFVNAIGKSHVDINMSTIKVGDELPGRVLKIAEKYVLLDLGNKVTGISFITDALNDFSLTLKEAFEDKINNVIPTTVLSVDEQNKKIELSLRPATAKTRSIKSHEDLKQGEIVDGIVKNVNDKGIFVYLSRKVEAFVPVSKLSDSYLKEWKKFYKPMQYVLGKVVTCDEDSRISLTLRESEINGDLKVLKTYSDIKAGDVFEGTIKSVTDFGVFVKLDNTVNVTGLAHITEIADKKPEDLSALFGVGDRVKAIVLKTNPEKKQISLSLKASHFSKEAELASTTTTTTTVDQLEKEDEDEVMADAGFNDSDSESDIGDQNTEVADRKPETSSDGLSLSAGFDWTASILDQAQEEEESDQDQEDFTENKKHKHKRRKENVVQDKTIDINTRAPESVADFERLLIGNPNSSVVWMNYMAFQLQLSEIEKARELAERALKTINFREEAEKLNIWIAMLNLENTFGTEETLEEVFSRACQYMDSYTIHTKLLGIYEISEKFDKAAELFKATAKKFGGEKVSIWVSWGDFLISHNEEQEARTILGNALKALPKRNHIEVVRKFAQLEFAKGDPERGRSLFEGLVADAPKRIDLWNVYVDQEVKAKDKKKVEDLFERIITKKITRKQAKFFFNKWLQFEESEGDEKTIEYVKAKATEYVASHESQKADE

binding result: binds
B1: MBP-Krr1, recombinant (natural protein, S. cerevisiae, UniProt P25586 1-316, looked up)
chain: MVSTHNRDKPWDTDDIDKWKIEEFKEEDNASGQPFAEESSFMTLFPKYRESYLKTIWNDVTRALDKHNIACVLDLVEGSMTVKTTRKTYDPAIILKARDLIKLLARSVPFPQAVKILQDDMACDVIKIGNFVTNKERFVKRRQRLVGPNGNTLKALELLTKCYILVQGNTVSAMGPFKGLKEVRRVVEDCMKNIHPIYHIKELMIKRELAKRPELANEDWSRFLPMFKKRNVARKKPKKIRNVEKKVYTPFPPAQLPRKVDLEIESGEYFLSKREKQMKKLNEQKEKQMEREIERQEERAKDFIAPEEEAYKPNQN

binding result: binds
B2: MBP-Rrp36, recombinant (natural protein, S. cerevisiae, UniProt Q12481 1-300, looked up)
chain: MSYYFKNLKPDLNSDVEEDDGNLLESIMANKSKREIDEQESSDDELKTLSFGSLKKAETVIDEEDFKDTKPVHKKPITTTYREESFDEDEDSEDQSDEDAGFFEEDSEDETHHGQKVPKKKSKHAPVEQSSKKRVPRVRNIPGLEIPRNKRSNLYQDIRFDKSTGKALDSSIIRKRYQFLDEYREKEIDELQKLLQERKFLSKIDQGEREEMEQRLKSMKSRLQSMKNKDLEREILKEYENDMNKNNNTRYHLKKSEKRKVVQKWKFDHMKAKQREKVMERKRKKRLGKEFKQFEFHNRR
